Source: paper PMC3525768

Target: T1, AgrAC (AgrA C-terminal LytTR domain) (Staphylococcus aureus, UniProt P0A0I7 137-238)
T1 sequence: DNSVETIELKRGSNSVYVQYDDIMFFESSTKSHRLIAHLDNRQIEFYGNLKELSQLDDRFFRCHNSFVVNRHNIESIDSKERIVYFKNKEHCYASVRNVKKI
Assay: EMSA

B1: 19-bp AgrA target DNA duplex (dsDNA)
DNA 1: ATTTAACAGTTAAGTATTT
DNA 2: AAATACTTAACTGTTAAAT
B1: binds.
